From a protein production outcome set (Wang et al. 2014)

Assay: label from the status in PepcDB records

Sequence	protein production
MAERRVALVMADNDYRLVRPLANPIHDGEAMEAALKKLGFEVILETNRDLRRMRRALDDFREDAKGADVALVYFSGHGVEISGDNRLLPVDADASSVDQLDKTSLPLEEVRDAVAATAKVGLIVLDACRSDPFSASSGDGRGATSLTKDVADKVKPGLGRVGRAENILFAFSAAPGETAADGTGENSPFTTALTKYLATDGLEIRSVLTLVQQEVYDLSRGKQLPYVESGLPKLFFAAAAKEQLPERERLLLAMADVTPEMRGEVEQIASDADMPLAPLYGALISSDASHLSADSLNARLREAADAFVKVRSEMKTLASDDPQVAELRRQAEEQLSLGAFDGARALLAKAADIDNVSRQALKVNFASRTLSEAATRFLSGGAARADLDYTTAIGDFETVLSLYGEAGQTSLSLEQADRQSRTLEELGILYTTVGNVEAAGRAFTALLTNLEQRSRQETDPSVKRDLAISHIKLANIKMVQGDLPTSLEHYEAARDMLQDLTASVPDEKSWLGDLAMANDKIGNVLATQGDVGAAAKAYQQSLSIKRKLVDAQPNSASLLRDLTITYDEIGDLARTAGQLDGAQTAFEESLRIRLVLAENKPDPERQRAVSVSHERIGDVLRERGDAAGALVAYSKSQAIAEELVRHDPNDTDLKRDLSISYAKIGNALNDQENWPAALASYQQALAVARELAADDPGNTDWQRDLSVCLEKVAGVLDAQGDIRSALQNYQDSLAIVDRLTKLDPGNSDWQRDLSITLSEIGMLETRQRHFEGSRKAFEASLGIRQKLAQSDPNNAIWQFDLVQAYINYAYVAKDPKAVLTKALNLTLDLDRTGRLAPRDKPTIKYLRGLLAKLNAGKK	failed
MSAATPQPPAPHVVLGSGPAGTALARELVRRGHPVRLVDRRATGPAVEGVERFPADVGTADGARAAIRDAAVVYHCVNVAYHLQVEVMPRVQEAVLAAVEESGARLVVLDTVYPYGETGGAVMTEDSPWKATSRKGRMRAELDERYLAAHRSGRARVVLGRSADFVGPGVLNSSLGAAVFPGALTGGDVVAMGNIDLPHSYTGIEDVAAALATLGERPDGDGRVWHLPTAPAVSTREIHALIEKRVGRPLNVVVLERPRPFGPFDEQLMAEYEEMFYQHTEAQIMDSGAFERFFEAAPTPLADTLDATVTWYEAWLRSR	failed
MEDKKEYAKYAGFRIRFAAMLIDVVILVILFSIPVGFIYGQEYWQGEKLIYGFWDVLINYVIPAILTIFFWIKFLGTPGKMILKLRVVDEHTGGTLSIGKAIGRYFAYILSILPVFLGFFWIGFSDKKQGWHDILAGTVVIRSESKGPFEFRS	failed
MDPNKVEISRLEALPQDLLREIVAKIGVKSAEDYHNCILSCKELGASANDERVLKTLNLALLVKKPLSCRKHLLIMKKCLANNNPDAHYIKGIIWYFNLDHCDVDLHHIGIAANGGQKEAIYMYAMLLLCRGRTEEGKTYMSQLEWAKTPPWLKRVGNKSKLH	failed
MMKIYLIEHVIGAVAYDENGNIVDYITNPRDLGKITEELLNNEKGIPFSATVELLKKVNPQEVVVENEAEVPKLQALGYRVSYEPYSKVSRIFRESLPKVAIDIKFASNEEDYYNFLHELSLEYTRRKLRSAAQKRDLLAIQAVRAMDDIDKTINLFSERLREWYSIHFPELDKLIEDHEEYATIVSRFGDRGFLTIDSLKELGFNEQRINRILDAAKKSIGADISEDDLSAMRMIANTILDLYNIRRNLNNYLEGVMKEVAPNVTALVGPALGARLLSIAGSLDELAKMPASTIQVLGAEKALFRALRSGGRPPKHGIIFQYPAIHTSPRWQRGKIARALAAKLAIAARVDAFSGRFIGDQLNEQLKKRIDEIKEKFAQPPPKKPQQQKPQQPQKQQAKGKKGGKRRGKRK	failed
MPDYDLIAILGPTASGKTPFAAALAAELNTEIISADSRQIYRGMDLGTGKDLEDYTINGRQIPYHLIDIADPGYKYNVFEYQRDFLTAYETIKQKGCLPVLCGGTGLYLESVLKGYRLIPVPENQELRVRLAEKSLEELTAILSSYKTLHNSTDVDTVKRAIRAIEIEEYYAKTPIEEREFPQLNSLIIGVDIDRELRREKITRRLKQRLDDGMVEEVRRLLAEGIQPDDLIYYGLEYKYLTLYAIGKMTYDEMFTGLETAIHQFAKRQMTWFRGMERRGFTIHWVDASLPMEEKINFVKQKLKEFLEHHHHHH	not failed
MPTPGTGSVPELQLVPFQLGHFPILQRWFATEKELVQWAGPALRHPLSLEQMHEDLAESRRRPPLRLLWSACRDDQVIGHCQLLFDRRNGVVRLARIVLAPSARGQGLGLPMLEALLAEAFADADIERVELNVYDWNAAARHLYRRAGFREEGLRRSATRVGRERWNVVLMGLLRQEWAAGGAGND	not failed
MHTDTERCVRAVQSKDARFDGWFFTAVLTTGIYCRPSCPVVPPKPGNMTFYPSAAACQQAGFRACKRCRPDTSPGSPEWNRRADLTARAMRLIADGVVDREGVPGLASRLGYSTRQVERQLLAELGAGPLALARAQRAQTARLLIETTPLPMADIAFAAGFSSIRTFNDTVREVYALSPSELRTRAPRNRRAATAPGALSLRLPFRAPLNPDNLFGHLAATAVPGVEEWRDGAYRRTLRLPYGHGIVALTPNPDHIACRLTLSDLRDLTVAISRCRRLLDLDADPTAIDDQLRADPLLAPLVDKAPGRRVPRTVDEAEFAVRAVLGQQVSTAAARTHAARLVTAHGDPVDDPEGGLTHLFPSTEALAAVDPETLAMPRTRRTTFTTLVAHLADGSVNPGVESDWAETRARLLALPGFGPWTADVIAMRALGDPDAFLPTDLGIRRAAAELGLPSTPAALTARAAAWRPWRAYAVQYLWATDDHPINFLPV	failed
MRNTFIVCWQYLRAFALIYLCLLAGNAVSALLPFTIPGSIIGMLVLFTLLASQILPAQWVKPGCYLLIRHMALLFVPIGVGVMNYYDLVNQQFGPIVVSCLISTFIVMLVVGFSTQIMQRERATAGDRTPPKDNE	failed
MVVYGADVICASCVNAPTSKDIYDWLQPLLKRKYPNISFKYTYIDITKDNDNLTDHDLQFIERIEQDELFYPLITMNDEYVADGYIQTKQITRFIDQKLVNE	not failed
MKQLSGLLGELRQKLCAGFPEQAGIQQLIFPAPGLVGRQLLEWLTAQTHFPQFYWRHRDNHEEAAVCGQTRSFADMKDADDFIQQNPDANGLRIWGLNAFEPVMVFGQLTDNGLVSGKNAQASFLFLPRLEILRRGKKTSLTLNLSSETSLQKDALQAITFIDQLMAARALPVLNARIQHSSHTPGYPQWRNLIQQALNDIEQQKLDKVVLARTTTLTLNKPLSCAAFMAASRQVNHRCYHFMLRFDDRQAFLGSSPERLYLRQQLHLETEALAGTVSNLDSDPQAAVLADWLMHDEKNQRENLLVVDDICQRLQGGVTAVDVMPPEIIRLRKVQHLRRRICAQLSRASDTDCLQRLQPTAAVAGLPREAARQFIAKHELFSRGWYAGSAGYLSLKRTEFSVALRSARVDGQQIHLYAGAGIVAGSDAEQEWQEIDNKSAGLQSLLEHEAQPVKA	not failed
MVSRTGRTHLPLVDSLKEKLPYILCGLLALAGVLLVWSLGSTFLPVLLALILAYVLNPLVTWLEARRVPRVAAVLLVMALIVVVTAGAVTFFAVSIQKEVARVEINLPAYATRLYDLIPGQAKAYLEIETPDKLYARIDSLVDELRGASFDLVKGALGVVQRAFSSTLGFLLTVAGYFITPVYLYYFLADLPRLRDGIMALVPGRARDRAAMLGSEIDGVLSGFVRGQLAVCAILAVLYSIGLVMIGIDLAIVIGSLSGFLFIIPYVGTVFGIVVSMIMAFLKFHDMLHPLLCLGWFAIVQAIEGALITPAVVGNTVGLHPVVAILALFIGGQWFGIFGMLLAVPVAAVIKVLLRHGVEWYRATPFFERP	failed
MALPPYDPNFKFAFSLGTIAKHQDYDESASAAVVALDLISSARFALKLDSVYTEYSAKYVVDNAAGSHSGRKLTVKDCLEFALNKGGIPKAEDWPRLGSVITPPSSYKPDLVSMKGQVIEPQTIEEACDMVVDQPVGAKLHVFKPHIELQQDASAITGIYCGTSGEPASYVGLRDAIIVGVEKIQGKSIGTVKVWYKKFIFLKVAMSRWFQLYSPDGTHTGIKRTDYLVDFCVPRLSMD	failed
MNAVTEGRKVLLEIADLKVHFEIKDGKQWFWQPPKTLKAVDGVTLRLYEGETLGVVGESGCGKSTFARAIIGLVKATDGHVAWLGKELLGMKPDEWRAVRSDIQMIFQDPLASLNPRMTIGEIIAEPLRTYHPKMSRQEVRERVKAMMLKVGLLPNLINRYPHEFSGGQCQRIGIARALILEPKLIICDEPVSALDVSIQAQVVNLLQQLQREMGLSLIFIAHDLAVVKHISDRVLVMYLGHAVELGTYDEVYHNPLHPYTRALMSAVPIPDPDLEKNKTIQLLEGELPSPINPPSGCVFRTRCPIAGPECAKTRPVLEGSFRHAVSCLKVDPL	failed
